This is an account of results in patent US20250115667A1.

In assay [1] the target is Cytotoxic T-lymphocyte-associated protein 4 (CTLA4), human (human) (UniProt P16410). Kind of assay: cell-based or functional assay.
The target in assay [2] is Programmed cell death protein 1 (PD1), human (human) (UniProt Q15116). Kind of assay: cell-based or functional assay.

Consider XmAb20717 (bispecific antibody), for which the IL-2 secretion from SEB-stimulated human PBMC (ELISA), fold increase versus a mixture of XENP20111 and XENP20059 in assay [1] and in assay [2] was 1.6 fold throughout.
